The conditions of this data set: Hordeum vulgare, whole UniProt chain shown.
Setting [1] is: pH 3, Thermal, DSC, glycine-HCl 10 mM.
[2] abbreviates: pH 6.25, 25 °C, GdnHCl, Fluorescence, MES 50 mM.

This is an account of results in FireProtDB (doi:10.1093/protein/7.6.777).

As a reminder, the Tm is the temperature at the midpoint of the melting transition.

B1: Subtilisin-chymotrypsin inhibitor-2A wild type, P01053 (protein)
chain: MSSVEKKPEGVNTGAGDRHNLKTEWPELVGKSVEEAKKVILQDKPEAQIIVLPVGTIVTMEYRIDRVRLFVDKLDNIAQVPRVG
With B1, under setting [1], the Tm was 63.8 °C and the “unfolding enthalpy (calorimetric)” value stood at 60 kcal/mol. Under setting [2], the denaturant m value is 1.9 kcal/mol/M, the “denaturant midpoint (higher = more stable)” value was 4 M and the unfolding free energy is 7.61 kcal/mol.
